Assay results published in the Immune Epitope Database (IEDB).
Values belong to the sequence of their own block, whether it stands above or below them.

What was measured:
HLA-B*15:01 [1] = assay: IEDB peptide-MHC binding, purified MHC/competitive/fluorescence; ≥ and ≤ were set here for values at or beyond the usual limits of such assays
HLA-A*02:01 [2] = assay: as above; conditions: source organism: Zaire ebolavirus
HLA-A*24:02 = assay: as above; conditions: source organism: Zaire ebolavirus
HLA-B*48:01 = assay: IEDB peptide-MHC binding, purified MHC/direct/fluorescence; filed as Kd, often an IC50 or EC50 that approximates it; ≥ and ≤ were set here for values at or beyond the usual limits of such assays
HLA-B*39:01 [3] = assay: as above
HLA-B*58:01 [4] = assay: IEDB peptide-MHC binding, purified MHC/competitive/radioactivity; filed as Kd, often an IC50 or EC50 that approximates it; ≥ and ≤ were set here for values at or beyond the usual limits of such assays
HLA-B*51:01 [5] = assay: IEDB peptide-MHC binding, purified MHC/direct/fluorescence; filed as Kd, often an IC50 or EC50 that approximates it; ≥ and ≤ were set here for values at or beyond the usual limits of such assays; conditions: source organism: Escherichia coli O157:H7
HLA-B*07:02 = assay: as above
HLA-A*68:02 [6] = assay: IEDB peptide-MHC binding, purified MHC/competitive/radioactivity; filed as Kd, often an IC50 or EC50 that approximates it; ≥ and ≤ were set here for values at or beyond the usual limits of such assays; conditions: source organism: Dengue virus 2 Jamaica/1409/1983
HLA-B*53:01 = assay: as above; conditions: source organism: Dengue virus 2 Jamaica/1409/1983
HLA-B*35:01 = assay: as above; conditions: source organism: Dengue virus 2 Jamaica/1409/1983
HLA-B*51:01 [7] = assay: as above; conditions: source organism: Dengue virus 2 Jamaica/1409/1983
HLA-A*29:02 = assay: IEDB peptide-MHC binding, purified MHC/competitive/fluorescence; filed as Kd, often an IC50 or EC50 that approximates it; ≥ and ≤ were set here for values at or beyond the usual limits of such assays; conditions: source organism: Giardia lamblia ATCC 50803
HLA-B*44:03 = assay: IEDB peptide-MHC binding, purified MHC/competitive/radioactivity; filed as Kd, often an IC50 or EC50 that approximates it; ≥ and ≤ were set here for values at or beyond the usual limits of such assays; conditions: source organism: SARS coronavirus Tor2
HLA-B*40:01 [8] = assay: as above; conditions: source organism: SARS coronavirus Tor2
HLA-B*18:01 [9] = assay: as above; conditions: source organism: SARS coronavirus Tor2
HLA-B*45:01 = assay: as above; conditions: source organism: SARS coronavirus Tor2
HLA-B*44:02 [10] = assay: as above; conditions: source organism: SARS coronavirus Tor2
HLA-B*40:02 = assay: as above; conditions: source organism: SARS coronavirus Tor2
HLA-A*02:12 = assay: IEDB peptide-MHC binding, purified MHC/direct/fluorescence; filed as Kd, often an IC50 or EC50 that approximates it; ≥ and ≤ were set here for values at or beyond the usual limits of such assays; conditions: source organism: Zaire ebolavirus
HLA-A*68:02 [11] = assay: as above; conditions: source organism: Zaire ebolavirus
HLA-A*02:19 = assay: as above; conditions: source organism: Zaire ebolavirus
HLA-B*58:01 [12] = assay: as above
HLA-A*02:03 = assay: as above; conditions: source organism: Zaire ebolavirus
HLA-A*03:01 = assay: as above
HLA-A*02:11 = assay: as above; conditions: source organism: Zaire ebolavirus
HLA-A*02:16 = assay: as above; conditions: source organism: Zaire ebolavirus
HLA-B*27:03 = assay: IEDB peptide-MHC binding, purified MHC/competitive/fluorescence; filed as Kd, often an IC50 or EC50 that approximates it; ≥ and ≤ were set here for values at or beyond the usual limits of such assays; conditions: source organism: Zaire ebolavirus
HLA-A*69:01 = assay: as above; conditions: source organism: Zaire ebolavirus
HLA-B*46:01 [13] = assay: as above; conditions: source organism: Zaire ebolavirus
HLA-B*15:17 = assay: as above; conditions: source organism: Zaire ebolavirus
HLA-A*26:01 = assay: as above; conditions: source organism: Zaire ebolavirus
HLA-B*15:01 [14] = assay: as above; conditions: source organism: Zaire ebolavirus
HLA-B*18:01 [15] = assay: as above; conditions: source organism: Zaire ebolavirus
HLA-A*02:01 [16] = assay: as above; conditions: source organism: Zaire ebolavirus
HLA-B*51:01 [17] = assay: as above; conditions: source organism: Zaire ebolavirus
HLA-B*39:01 [18] = assay: as above; conditions: source organism: Zaire ebolavirus
HLA-B*27:05 = assay: IEDB peptide-MHC binding, purified MHC/direct/fluorescence; filed as Kd, often an IC50 or EC50 that approximates it; ≥ and ≤ were set here for values at or beyond the usual limits of such assays; conditions: source organism: Ebola virus - Gabon (1994-1997)
HLA-A*31:01 = assay: as above; conditions: source organism: Ebola virus - Gabon (1994-1997)
HLA-A*01:01 = assay: as above; conditions: source organism: Ebola virus - Gabon (1994-1997)
HLA-B*57:01 = assay: as above; conditions: source organism: Ebola virus - Gabon (1994-1997)
HLA-B*46:01 [19] = assay: as above; conditions: source organism: Ebola virus - Gabon (1994-1997)
HLA-B*40:01 [20] = assay: as above; conditions: source organism: Ebola virus - Gabon (1994-1997)
HLA-B*15:01 [21] = assay: as above; conditions: source organism: Ebola virus - Gabon (1994-1997)
HLA-B*18:01 [22] = assay: as above; conditions: source organism: Ebola virus - Gabon (1994-1997)
HLA-A*11:01 = assay: as above; conditions: source organism: Ebola virus - Gabon (1994-1997)
HLA-B*44:02 [23] = assay: as above; conditions: source organism: Ebola virus - Gabon (1994-1997)
[24] = source organism: Zaire ebolavirus
[25] = source organism: Ebola virus - Gabon (1994-1997)

Sequence: FVTLDGQQF
IC50 (HLA-B*15:01 [1]; [24]): 61.1 µM
IC50 (HLA-A*02:01 [2]): ≥ 121 µM
IC50 (HLA-A*24:02): 17.6 µM

Sequence: GRLVTVNPF
Kd (HLA-B*48:01; source organism: West Nile virus): ≥ 20 µM

Sequence: HHAVPNGTL
Kd (HLA-B*39:01 [3]; source organism: Influenza A virus (A/kunke/1/71(H3N2))): 0.0521 µM

Sequence: LASAILNAHE
Kd (HLA-B*58:01 [4]; source organism: Dengue virus 4 Philippines/H241/1956): 0.983 µM

Sequence: LIVKTVLDH
IC50 (HLA-B*15:01 [1]; [24]): ≥ 73.9 µM

Kd (HLA-B*51:01 [5]): ≥ 20 µM
Kd (HLA-B*07:02; source organism: Escherichia coli O157:H7): 0.0015 µM
Sequence: LPQRHHIML

Sequence: MAAILAYTI
Kd (HLA-A*68:02 [6]): 0.00473 µM
Kd (HLA-B*53:01): 0.0132 µM
Kd (HLA-B*58:01 [4]; source organism: Dengue virus 2 Jamaica/1409/1983): 0.00126 µM
Kd (HLA-B*35:01): 1.73 µM
Kd (HLA-B*51:01 [7]): 0.0101 µM

Sequence: PPIPIWLLF
Kd (HLA-A*29:02): 0.197 µM

Sequence: RTIHHASAP
IC50 (HLA-B*15:01 [1]; [24]): 36.4 µM
IC50 (HLA-A*02:01 [2]): ≥ 622 µM

IC50 (HLA-B*15:01 [1]; source organism: Homo sapiens): 5.8 µM
Sequence: SYFTNMFATWSP

Sequence: VEYYPLLFIT
Kd (HLA-B*44:03): 8.31 µM
Kd (HLA-B*40:01 [8]): 5.12 µM
Kd (HLA-B*18:01 [9]): 8.28 µM
Kd (HLA-B*45:01): 0.568 µM
Kd (HLA-B*44:02 [10]): ≥ 62 µM
Kd (HLA-B*40:02): 0.0126 µM

Sequence: WLQKIPLQW
Kd (HLA-A*02:12): ≥ 20 µM
Kd (HLA-A*68:02 [11]): ≥ 20 µM
Kd (HLA-A*02:19): ≥ 20 µM
Kd (HLA-B*58:01 [12]; source organism: Ebola virus - Eckron (Zaire, 1976)): 0.693 µM
Kd (HLA-A*02:03): ≥ 20 µM
Kd (HLA-A*03:01; [24]): ≥ 20 µM
Kd (HLA-A*02:11): ≥ 20 µM
Kd (HLA-A*02:16): ≥ 20 µM
Kd (HLA-B*27:03): ≥ 20 µM
Kd (HLA-A*69:01): ≥ 20 µM
Kd (HLA-B*46:01 [13]): ≥ 20 µM
Kd (HLA-B*15:17): ≥ 20 µM
Kd (HLA-A*26:01): ≥ 20 µM
Kd (HLA-B*15:01 [14]): ≥ 20 µM
Kd (HLA-B*18:01 [15]): ≥ 20 µM
Kd (HLA-A*02:01 [16]): ≥ 20 µM
Kd (HLA-B*51:01 [17]): ≥ 20 µM
Kd (HLA-B*39:01 [18]): ≥ 20 µM

Sequence: WMASVEPHW
Kd (HLA-B*58:01 [4]; source organism: Dengue virus 1 Brazil/97-11/1997): 0.0133 µM

Sequence: YFTFDLTAL
Kd (HLA-A*02:12): ≥ 20 µM
Kd (HLA-B*27:05): ≥ 20 µM
Kd (HLA-A*31:01): ≥ 20 µM
Kd (HLA-A*02:19): ≥ 20 µM
Kd (HLA-A*01:01): ≥ 20 µM
Kd (HLA-B*58:01 [12]; [25]): ≥ 20 µM
Kd (HLA-B*57:01): ≥ 20 µM
Kd (HLA-B*48:01; [25]): ≥ 20 µM
Kd (HLA-B*46:01 [19]): ≥ 20 µM
Kd (HLA-A*02:03): ≥ 20 µM
Kd (HLA-B*40:01 [20]): ≥ 20 µM
Kd (HLA-A*03:01; [25]): ≥ 20 µM
Kd (HLA-B*15:01 [21]): ≥ 20 µM
Kd (HLA-B*18:01 [22]): ≥ 20 µM
Kd (HLA-A*02:11): ≥ 20 µM
Kd (HLA-A*11:01): ≥ 20 µM
Kd (HLA-B*44:02 [23]): ≥ 20 µM
Kd (HLA-B*07:02; [25]): ≥ 20 µM
Kd (HLA-B*39:01 [3]; [25]): ≥ 20 µM
Kd (HLA-A*02:16): ≥ 20 µM
Kd (HLA-B*27:03): ≥ 20 µM
Kd (HLA-A*69:01): ≥ 20 µM
Kd (HLA-B*15:17): ≥ 20 µM
Kd (HLA-A*26:01): ≥ 20 µM
Kd (HLA-A*02:01 [16]): ≥ 20 µM
Kd (HLA-B*51:01 [17]): ≥ 20 µM
